The record followed here is patent US20260092093A1 (TJ BIOPHARMA SHANGHAI, published 2026).

One experiment has as its target T1, hIL-18BP-hFc (human, UniProt O95998 31-194, limits assumed).
T1 sequence (looked up): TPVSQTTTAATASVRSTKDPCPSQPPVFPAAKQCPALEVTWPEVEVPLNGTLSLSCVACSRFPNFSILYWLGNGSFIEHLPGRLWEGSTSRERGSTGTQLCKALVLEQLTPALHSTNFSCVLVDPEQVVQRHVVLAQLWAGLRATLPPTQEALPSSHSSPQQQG
Kind of experiment: cell-based or functional assay.

Experiment [1] has as its target T2, hIL-18 receptor (hIL-18Rα and hIL-18Rβ) (human, UniProt Q13478 19-541; O95256 20-599).
T2 sequence (looked up) 1: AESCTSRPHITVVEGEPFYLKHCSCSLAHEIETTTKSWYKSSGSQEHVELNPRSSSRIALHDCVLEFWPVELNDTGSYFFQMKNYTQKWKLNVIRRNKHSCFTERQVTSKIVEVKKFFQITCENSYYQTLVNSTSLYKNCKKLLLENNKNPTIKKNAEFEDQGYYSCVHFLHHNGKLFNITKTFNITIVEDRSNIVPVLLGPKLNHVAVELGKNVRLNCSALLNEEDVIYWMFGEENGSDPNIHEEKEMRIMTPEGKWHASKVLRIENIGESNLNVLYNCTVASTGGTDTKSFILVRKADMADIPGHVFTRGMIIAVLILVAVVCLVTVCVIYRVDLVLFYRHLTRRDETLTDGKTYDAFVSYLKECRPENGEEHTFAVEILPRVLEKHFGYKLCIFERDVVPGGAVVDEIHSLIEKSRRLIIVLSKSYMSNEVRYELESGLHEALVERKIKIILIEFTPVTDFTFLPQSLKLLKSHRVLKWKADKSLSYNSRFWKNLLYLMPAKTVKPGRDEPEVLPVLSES
T2 sequence (looked up) 2: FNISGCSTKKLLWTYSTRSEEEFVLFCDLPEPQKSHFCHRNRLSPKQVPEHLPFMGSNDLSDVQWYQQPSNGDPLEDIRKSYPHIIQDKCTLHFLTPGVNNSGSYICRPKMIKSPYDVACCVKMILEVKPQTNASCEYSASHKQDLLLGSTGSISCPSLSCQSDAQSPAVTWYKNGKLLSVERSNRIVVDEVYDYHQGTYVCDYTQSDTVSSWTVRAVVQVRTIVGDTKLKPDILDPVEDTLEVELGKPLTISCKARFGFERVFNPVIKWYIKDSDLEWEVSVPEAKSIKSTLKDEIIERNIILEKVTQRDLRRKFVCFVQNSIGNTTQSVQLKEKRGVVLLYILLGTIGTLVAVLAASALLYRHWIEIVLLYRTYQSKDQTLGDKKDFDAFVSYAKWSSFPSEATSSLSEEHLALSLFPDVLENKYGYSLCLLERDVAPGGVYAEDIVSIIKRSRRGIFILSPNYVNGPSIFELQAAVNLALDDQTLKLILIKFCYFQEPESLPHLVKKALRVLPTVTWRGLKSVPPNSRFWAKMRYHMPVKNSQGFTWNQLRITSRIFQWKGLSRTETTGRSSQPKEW
Kind of experiment: cell-based or functional assay.

B1: IL-18 variant polypeptide WM2 (ligand)
chain: YFPKLRSKLSVIRNLNDQVLFIDQGNRPLFEDMTDSDCRDNAPRTIFIISMYKDSQPRGMAVTISVKCEKISTLSCENKIISFKEMNPPDNIKDTESDIIFFQRSVPGHDNKMQFESSSYEGYFLACEKERDLFKLILKKEDELGDRSIMFTVQNED
For the molecule B1, in the experiment with hIL-18BP-hFc, the “EC50 (nM) in the Presence of 1 µg/mL hIL-18BP-hFc, hIL-18 reporter assay” value (“EC50 (nM) in the Presence” below) is 14.2 nM and the “EC50 Fold Change (+BP/-BP), hIL-18 reporter assay” value (shortened to “EC50 Fold Change (+BP/-BP)”) worked out at 1.32 fold. Further, the “EC50 (nM), hIL-18 reporter assay” value in experiment [1] was determined as 10.7 nM.

B2: IL-18 variant polypeptide M19 (ligand)
chain: YFPKLKSKLSVIRNLNDQVLFIDQGNRPLFEDMTDSDCRDNAPRTIFIISMYKHSEQRGMAVTISVKCEKISTLSCENKIISFKEMNPPDAIKDTKSDIIFFQRSVPGHDNKMQFESSSYEGYFLACEKERDLFKLILKKEDELGDRSIMFTVQNED
For the molecule B2, in the experiment with hIL-18BP-hFc, the “EC50 (nM) in the Presence” value turned out to be 0.31 nM and the “EC50 Fold Change (+BP/-BP)” value worked out at 0.47 fold. The “EC50 (nM), hIL-18 reporter assay” value in experiment [1] came out at 0.66 nM.

B3: IL-18 variant polypeptide M4 (ligand)
chain: YFPKLKSKLSVIRNLNDQVLFIDQGNRPLFEDMTDSDCRDNAPRTIFIISMYKWSGVRGMAVTISVKCEKISTLSCENKIISFKEMNPPDVIKDTKSDIIFFQFSVPGHDNKMQFESSSYEGYFLACEKERDLFKLILKKEDELGDRSIMFTVQNED
On to B3, for which, in the experiment with hIL-18BP-hFc, the “EC50 (nM) in the Presence” value worked out at 0.025 nM and the “EC50 Fold Change (+BP/-BP)” value stood at 1.39 fold. Moreover, in experiment [1], the “EC50 (nM), hIL-18 reporter assay” value was determined as 0.018 nM.

B4: IL-18 variant polypeptide M7 (ligand)
chain: YFPKLRSKLSVIRNLNDQVLFIDQGNRPLFEDMTDSDCRDNAPRTIFIISMYKHSTARGMAVTISVKCEKISTLSCENKIISFKEMNPPDAIKDTKSDIIFFQRSVPGHDNKMQFESSSYEGYFLACEKERDLFKLILKKEDELGDRSIMFTVQNED
On to B4, for which, in the experiment with hIL-18BP-hFc, the “EC50 (nM) in the Presence” value is 0.25 nM and the “EC50 Fold Change (+BP/-BP)” value was 1.67 fold. Also, the “EC50 (nM), hIL-18 reporter assay” value in experiment [1] came to 0.15 nM.

B5: IL-18 variant polypeptide M20 (ligand)
chain: YFPKLRSKLSVIRNLNDQVLFIDQGNRPLFEDMTDSDCRDNAPRTIFIISMYKSSRSRGMAVTISVKCEKISTLSCENKIISFKEMNPPDGIKDTKSDIIFFQSSVPGHDNKMQFESSSYEGYFLACEKERDLFKLILKKEDELGDRSIMFTVQNED
On to B5, for which, in the experiment with hIL-18BP-hFc, the “EC50 (nM) in the Presence” value stood at 0.5 nM and the “EC50 Fold Change (+BP/-BP)” value came out at 0.23 fold. In addition, in experiment [1], the “EC50 (nM), hIL-18 reporter assay” value was determined as 2.2 nM.

B6: IL-18 variant polypeptide M6 (ligand)
chain: YFPKLRSKLSVIRNLNDQVLFIDQGNRPLFEDMTDSDCRDNAPRTIFIISMYKWSTPRGMAVTISVKCEKISTLSCENKIISFKEMNPPDVIKDTKSDIIFFQTSVPGHDNKMQFESSSYEGYFLACEKERDLFKLILKKEDELGDRSIMFTVQNED
For B6, in the experiment with hIL-18BP-hFc, the “EC50 (nM) in the Presence” value was 0.14 nM and the “EC50 Fold Change (+BP/-BP)” value worked out at 0.78 fold. For the same molecule, in experiment [1], the “EC50 (nM), hIL-18 reporter assay” value stood at 0.18 nM.

B7: IL-18 variant polypeptide M9 (ligand)
chain: YFPKLRSKLSVIRNLNDQVLFIDQGNRPLFEDMTDSDCRDNAPRTIFIISMYKWSRARGMAVTISVKCEKISTLSCENKIISFKEMNPPDSIKDTKSDIIFFQSSVPGHDNKMQFESSSYEGYFLACEKERDLFKLILKKEDELGDRSIMFTVQNED
Consider B7, for which, in the experiment with hIL-18BP-hFc, the “EC50 (nM) in the Presence” value came to 0.33 nM and the “EC50 Fold Change (+BP/-BP)” value amounted to 0.77 fold. For the same molecule, in experiment [1], the “EC50 (nM), hIL-18 reporter assay” value was 0.43 nM.

B8: IL-18 variant polypeptide M22 (ligand)
chain: YFPKLRSKLSVIRNLNDQVLFIDQGNRPLFEDMTDSDCRDNAPRTIFIISMYKYSRGRGMAVTISVKCEKISTLSCENKIISFKEMNPPDKIKDTKSDIIFFQSSVPGHDNKMQFESSSYEGYFLACEKERDLFKLILKKEDELGDRSIMFTVQNED
With B8, in the experiment with hIL-18BP-hFc, the “EC50 (nM) in the Presence” value was found to be 7.5 nM and the “EC50 Fold Change (+BP/-BP)” value is 1.04 fold. Besides, the “EC50 (nM), hIL-18 reporter assay” value in experiment [1] worked out at 7.2 nM.

B9: IL-18 variant polypeptide M14 (ligand)
chain: YFNKLKSKLSVIRNLNDQVLFIDQGNRPLFEDMTDSDCRDNAPRTIFIISMYKPSSSRGMAVTISVKCEKISTLSCENKIISFKEMNPPDRIKDTKSDIIFFQASVPGHDNKMQFESSSYEGYFLACEKERDLFKLILKKEDELGDRSIMFTVQNED
Regarding B9, in the experiment with hIL-18BP-hFc, the “EC50 (nM) in the Presence” value was determined as 0.03 nM and the “EC50 Fold Change (+BP/-BP)” value amounted to 0.75 fold. In addition, the “EC50 (nM), hIL-18 reporter assay” value in experiment [1] was 0.04 nM.

B10: IL-18 variant polypeptide M3 (ligand)
chain: YFPKLKSKLSVIRNLNDQVLFIDQGNRPLFEDMTDSDCRDNAPRTIFIISMYKWSHVRGMAVTISVKCEKISTLSCENKIISFKEMNPPDAIKDTKSDIIFFQYSVPGHDNKMQFESSSYEGYFLACEKERDLFKLILKKEDELGDRSIMFTVQNED
In the case of B10, in the experiment with hIL-18BP-hFc, the “EC50 (nM) in the Presence” value was determined as 0.37 nM and the “EC50 Fold Change (+BP/-BP)” value is 1.54 fold. Further, the “EC50 (nM), hIL-18 reporter assay” value in experiment [1] was 0.24 nM.

B11: IL-18 variant polypeptide M18 (ligand)
chain: YFPKLRSKLSVIRNLNDQVLFIDQGNRPLFEDMTDSDCRDNAPRTIFIISMYKSSRRRGMAVTISVKCEKISTLSCENKIISFKEMNPPDGIKDTKSDIIFFQSSVPGHDNKMQFESSSYEGYFLACEKERDLFKLILKKEDELGDRSIMFTVQNED
As for B11, in the experiment with hIL-18BP-hFc, the “EC50 (nM) in the Presence” value is 0.56 nM and the “EC50 Fold Change (+BP/-BP)” value worked out at 0.97 fold. In addition, the “EC50 (nM), hIL-18 reporter assay” value in experiment [1] was 0.58 nM.

B12: IL-18 variant polypeptide M16 (ligand)
chain: YFPKLRSKLSVIRNLNDQVLFIDQGNRPLFEDMTDSDCRDNAPRTIFIISMYKSSRNRGMAVTISVKCEKISTLSCENKIISFKEMNPPDGIKDTKSDIIFFQSSVPGHDNKMQFESSSYEGYFLACEKERDLFKLILKKEDELGDRSIMFTVQNED
On to B12, for which, in the experiment with hIL-18BP-hFc, the “EC50 (nM) in the Presence” value came to 0.34 nM and the “EC50 Fold Change (+BP/-BP)” value amounted to 1.17 fold. For the same molecule, in experiment [1], the “EC50 (nM), hIL-18 reporter assay” value came out at 0.29 nM.

B13: IL-18 variant polypeptide M5 (ligand)
chain: YFEKLTSKLSVIRNLNDQVLFIDQGNRPLFEDMTDSDCRDNAPRTIFIISMYKWSPWRGMAVTISVKCEKISTLSCENKIISFKEMNPPDVIKDTKSDIIFFQTSVPGHDNKMQFESSSYEGYFLACEKERDLFKLILKKEDELGDRSIMFTVQKED
As to B13, in the experiment with hIL-18BP-hFc, the “EC50 (nM) in the Presence” value was 0.21 nM and the “EC50 Fold Change (+BP/-BP)” value was 0.95 fold. The “EC50 (nM), hIL-18 reporter assay” value in experiment [1] was found to be 0.22 nM.

B14: IL-18 variant polypeptide M1 (ligand)
chain: YFPKLKSKLSVIRNLNDQVLFIDQGNRPLFEDMTDSDCRDNAPRTIFIISMYKHSDRRGMAVTISVKCEKISTLSCENKIISFKEMNPPDVIKDTKSDIIFFQVSVPGHDNKMQFESSSYEGYFLACEKERDLFKLILKKEDELGDRSIMFTVQNED
With B14, in the experiment with hIL-18BP-hFc, the “EC50 (nM) in the Presence” value was determined as 3.45 nM and the “EC50 Fold Change (+BP/-BP)” value was determined as 2.38 fold. In addition, the “EC50 (nM), hIL-18 reporter assay” value in experiment [1] amounted to 1.45 nM.

B15: IL-18 variant polypeptide M2 (ligand)
chain: YFSKLKSKLSVIRNLNDQVLFIDQGNRPLFEDMTDSDCRDNAPRTIFIISMYKWSPDRGMAVTISVKCEKISTLSCENKIISFKEMNPPDGIKDTKSDIIFFQTSVPGHDNKMQFESSSYEGYFLACEKERDLFKLILKKEDELGDRSIMFTVQNED
As to B15, in the experiment with hIL-18BP-hFc, the “EC50 (nM) in the Presence” value amounted to 0.19 nM and the “EC50 Fold Change (+BP/-BP)” value amounted to 0.7 fold. Also, the “EC50 (nM), hIL-18 reporter assay” value in experiment [1] was 0.27 nM.

B16: IL-18 variant polypeptide M10 (ligand)
chain: YFPKLRSKLSVIRNLNDQVLFIDQGNRPLFEDMTDSDCRDNAPRTIFIISMYKQSLWRGMAVTISVKCEKISTLSCENKIISFKEMNPPDSIKDTKSDIIFFQRSVPGHDNKMQFESSSYEGYFLACEKERDLFKLILKKEDELGDRSIMFTVQNED
For B16, in the experiment with hIL-18BP-hFc, the “EC50 (nM) in the Presence” value is 0.17 nM and the “EC50 Fold Change (+BP/-BP)” value stood at 0.59 fold. In addition, in experiment [1], the “EC50 (nM), hIL-18 reporter assay” value amounted to 0.29 nM.
